{"source": "patent US20080280346A1", "about": "(published 2008)", "binders": {"B1": {"name": "VamyZHlyA (VHH)", "VHH": "QVQLVESWGGSVQAGGSLRLSCTAPGFTSNSCRMDWYRQAAGKQREWVSSISTDGRTSYADSVKGRFTISKDKAKDTVYLQMNSLKPEDTAIYYCAVRTNGYRPQSHEFRYWGPGTQVTVSS", "modifications": "Non-covalent homodimer through the GCN4 leucine zipper; one monomer chain is given.", "notes": "also called dimeric VHH-HlyA polypeptide; VHH-ZEHlyA hybrid"}}, "target": "T1, α-amylase", "T1 construct": "Coated on ELISA plates at 200 µg/ml in PBS", "test": "ELISA, plate coated with α-amylase, dimer compared with monomeric VamyHlyA"}
{"binder": "B1", "values": [{"measurement": "fold increase in functional affinity (avidity) against the monomeric form", "result": 10, "unit": "fold"}]}
